Experimental findings from paper PMC4788497 (Methods in molecular biology (Clifton, N.J.), 2014) are described below.

This data set deals with the molecule itself. As to the kind of experiment: SEC. (In gel filtration, larger molecules generally elute earlier.)

B1: DGCR8 NC1 (amino acid residues 276-751 of human DGCR8), Fe(III) heme-bound dimer (domain or fragment, UniProt Q8WYQ5 276-751, looked up)
chain: DGETSVQPMMTKIKTVLKSRGRPPTEPLPDGWIMTFHNSGVPVYLHRESRVVTWSRPYFLGTGSIRKHDPPLSSIPCLHYKKMKDNEEREQSSDLTPSGDVSPVKPLSRSAELEFPLDEPDSMGADPGPPDEKDPLGAEAAPGALGQVKAKVEVCKDESVDLEEFRSYLEKRFDFEQVTVKKFRTWAERRQFNREMKRKQAESERPILPANQKLITLSVQDAPTKKEFVINPNGKSEVCILHEYMQRVLKVRPVYNFFECENPSEPFGASVTIDGVTYGSGTASSKKLAKNKAARATLEILIPDFVKQTSEEKPKDSEELEYFNHISIEDSRVYELTSKAGLLSPYQILHECLKRNHGMGDTSIKFEVVPGKNQKSEYVMACGKHTVRGWCKNKRVGKQLASQKILQLLHPHVKNWGSLLRMYGRESSKMVKQETSDKSVIELQQYAKKNKPNLHILSKLQEEMKRLAEEREETRK
Consider B1, for which the binding result is “binds”.
